Measured values reported in patent US7025971 (WASHINGTON UNIVERSITY, dated 2006).
Where no end group is shown, it is not given here.

B2: PapD (wild type) (other)
chain: AVSLDRTRAVFDGSEKSMTLDISNDNKQLPYLAQAWIENENQEKIITGPVIATPPVQRLEPGAKSMVRLSTTPDISKLPQDRESLFYFNLREIPPRSEKANVLQIALQTKIKLFYRPAAIKTRPNEVWQDQLILNKVSGGYRIENPTPYYVTVIGLGGSEKQAEEGEFETVMLSPRSEQTVKSANYNTPYLSYINDYGGRPVLSFICNGSRCSVKKEK
notes: also called WT PapD; native PapD

What was measured:
PapD (wild type) [1] = biological target: B2; experiment: inhibition ELISA: PapD preincubated with peptide, MBP-G1′-140′-coated wells
PapD (wild type) [2] = biological target: B2; experiment: soluble inhibition ELISA: 25-fold molar excess of peptide, 100 pmol/well PapD, G1′-19′WT-coated wells
Text: (§1) The wells were washed with PBS and blocked with 3% bovine serum albumin (BSA).

PapD (wild type) [3] = biological target: B2; experiment: soluble inhibition ELISA on G1′-19′WT-coated wells
Text: as §1

[4] = biological target: T1, modified PapG peptide, Ser-9′ substituted by Cys, labelled with 5-IAF (E. coli); experiment: fluorescence intensity at 514 nm of the 5-IAF-labelled PapG peptide against increasing PapD concentration
T1 construct: also called labelled peptide; fluorescence labelled PapG analogue
Text: The environmentally sensitive fluorescent probe 5-IAF (5-iodoacetamidfluorescein) was then covalently coupled to the peptide via the sulfhydryl group on the Cys residue and the labelled peptide was purified; of course any other suitable envirorenmentally sensitive fluorescent probe may be employed.

[5] = biological target: T2, maltose binding protein (MBP) (UniProt P0AEX9 27-392 = MBP); experiment: co-expression, amylose affinity chromatography
T2 construct: also called MBP control

PapD (wild type) [6] = biological target: B2; experiment: ELISA, peptide coated on wells, PapD in solution
Experimental: (§2) 5 mg/ml stock solutions of peptides in water or 50% acetic acid were diluted to a concentration of 2.5 pmol/50 μl in PBS. 50 μl of the peptide solution was coated overnight onto microtiter wells (Nunc-Immuno Plate Maxisorp) at 4° C. The solutions in the plates were discarded, and the wells were blocked with 200 μl 3% bovine serum albumin (BSA, Sigma) in PBS (120 mM NaCl/2.7 mM KCl/10 mM phosphate buffer salts, pH 7.4) for 2 hours at 25° C. […] After 3 washes with PBS, the wells were incubated with a 1:1000 dilution of goat anti-rabbit IgG coupled to alkaline phosphatase (Sigma) in 3% BSA/PBS for 45 min. at 25° C. Following 3 washes with PBS and 3 washes with developing buffer (10 mM diethanolamine pH 9.5, 0.5 μM MgCl₂), 50 μl filtered p-nitrophenyl phosphate substrate (Sigma) in developing buffer (10 mg/ml) was added.

PapD (wild type) [7] = biological target: B2; experiment: ELISA, peptide coated on wells (2.5 pmol/50 µl), PapD in solution
Experimental: as §2

PapD Arg-8-Ala = biological target: T3, PapD Arg-8-Ala (E. coli, UniProt P15319 22-239); experiment: native polyacrylamide gel mobility shift
T3 construct: also called R8A; pR8A
T3 sequence: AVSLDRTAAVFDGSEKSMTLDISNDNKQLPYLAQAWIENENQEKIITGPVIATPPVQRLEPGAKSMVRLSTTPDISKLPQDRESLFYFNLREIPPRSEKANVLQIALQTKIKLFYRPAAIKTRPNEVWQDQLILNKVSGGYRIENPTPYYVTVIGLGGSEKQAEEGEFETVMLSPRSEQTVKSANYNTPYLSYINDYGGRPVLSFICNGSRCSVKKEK

PapD Lys-112-Ala = biological target: T4, PapD Lys-112-Ala (E. coli, UniProt P15319 22-239); experiment: native polyacrylamide gel mobility shift
T4 sequence: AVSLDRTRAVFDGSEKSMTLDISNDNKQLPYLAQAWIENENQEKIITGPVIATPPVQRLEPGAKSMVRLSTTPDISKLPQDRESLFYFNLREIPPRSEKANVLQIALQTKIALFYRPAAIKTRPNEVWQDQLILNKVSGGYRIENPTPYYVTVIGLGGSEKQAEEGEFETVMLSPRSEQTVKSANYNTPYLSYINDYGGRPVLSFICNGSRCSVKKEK

PapD Arg-8-Gly = biological target: T5, PapD Arg-8-Gly (E. coli, UniProt P15319 22-239); experiment: native polyacrylamide gel mobility shift
T5 construct: also called R8G; pR8G
T5 sequence: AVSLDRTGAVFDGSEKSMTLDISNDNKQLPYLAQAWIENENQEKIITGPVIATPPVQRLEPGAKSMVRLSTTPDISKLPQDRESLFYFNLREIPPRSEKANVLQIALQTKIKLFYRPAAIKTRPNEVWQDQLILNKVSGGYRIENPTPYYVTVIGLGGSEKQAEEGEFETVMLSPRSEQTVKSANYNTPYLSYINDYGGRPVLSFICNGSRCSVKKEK

PapD (wild type) [8] = biological target: B2; experiment: ELISA, peptide coated on wells, PapD in solution, anti-PapD antiserum
Experimental: as §2

PapD (wild type) [9] = biological target: B2; experiment: ELISA, peptide coated on wells, anti-PapD antiserum
PapD (wild type) [10] = biological target: B2; experiment: ELISA, peptide coated on wells, 200 pmol PapD, anti-PapD antiserum
Experimental: For assaying the second site peptides, all the peptides were dissolved in dimethyl sulfoxide (DMSO, Sigma, St. Louis, Mo., USA) to a final concentration 2 mM. The stock solutions were diluted to a proper concentration in PBS and coated overnight on microtiter wells at 4° C. All the peptide solutions were adjusted to the same DMSO concentration. The subsequent steps followed the procedure described above.

Binder: MVLSFP [G1′-6′]
- binding result (PapD (wild type) [1]): binds

Binder: GKRKPGELSGSMTMVLSFP-NH2 (also called G1′-19′NH2) [G1′-19′amide]
- % Inhibition (PapD (wild type) [2]): 56%

B1: G1′-19′SV (peptide)
peptide: GKRKPVELSGSMTMVLSSP
notes: Variant of G1′-19′WT with Phe-2′ to Ser and Gly-14′ to Val
- binding result (PapD (wild type) [3]): binds

Binder: TMVLSFP [G1′-7′WT]
- % Inhibition (PapD (wild type) [2]): 49%

Binder: B2
- Kd [4]: 2.5 µM
- binding result [5]: no binding

Binder: SGSMTMVLSFP (Water insoluble peptide) [G1′-11′WT]
- binding result (PapD (wild type) [6]): binds

Binder: KKLEAGNYFAVLGFRVDYE (also called PapH peptide) [H1′-19′WT]
- binding result (PapD (wild type) [7]): no binding

B3: G1′-19′WT (peptide)
peptide: GKRKPGELSGSMTMVLSFP
notes: Synthetic peptide; residues numbered from the C-terminus (Pro-1′); also called PapG 19-mer peptide; G-peptide
- binding result (PapD Arg-8-Ala): no binding
- binding result (PapD Lys-112-Ala): no binding
- binding result (PapD Arg-8-Gly): no binding
- % Inhibition (PapD (wild type) [2]): 63%

Binder: GILNGGDFQTTASMAMIYN (also called PapF peptide) [F1′-19′WT]
- binding result (PapD (wild type) [8]): binds

B4: SEQ ID NO 19 (peptide)
peptide: LPATNTLMLSFDNVGG
notes: also called one of the other three second-site peptides of PapG (region 120′ to 156′)
- binding result (PapD (wild type) [9]): no binding (tested: 200 pmol/50 ml of PapD)

Binder: DQIKQLPATNTLMLSF (also called site 2 peptide) [G125′-140′]
- binding result (PapD (wild type) [10]): binds

B5: SEQ ID NO 21 (peptide)
peptide: YKMPYDQIKQLPATNT
notes: as for B4
- binding result (PapD (wild type) [9]): no binding (tested: 200 pmol/50 ml of PapD)

B6: E1′-19′WT (peptide)
peptide: QNLIAGPFSATATLVASYS
notes: Water insoluble peptide; also called PapE peptide
- binding result (PapD (wild type) [8]): binds

Binder: KPGELSGSMTMVLSFP [G1′-16′WT]
- binding result (PapD (wild type) [6]): binds

B7: SEQ ID NO 22 (peptide)
peptide: QHHYYDLWQDHYKMPY
notes: as for B4
- binding result (PapD (wild type) [9]): no binding (tested: 200 pmol/50 ml of PapD)

Binder: KSVVPGDYEATATFELTYR (also called PapK peptide; K-peptide) [K1′-19′WT]
- binding result (PapD (wild type) [8]): binds

B8: G1′-8′WT (peptide)
peptide: MTMVLSFP
notes: also called PapG 8-mer peptide; octameric peptide
- binding result (PapD (wild type) [1]): binds
